The values below come from US7943319B2, “Utility of RET mutant in diagnosis and treatment of melanoma” (John Wayne Cancer Institute, priority 2007, dated 2011).

The target in test [1] is RET G691S mutant (RETmt), endogenous on melanoma cells (human) (UniProt P07949). The experiment in a line: cell-based or functional assay.
For a further test, the system named is ME7 cells (RETmt/BRAFwt). The experiment in a line: Blocking assay of GDNF-induced proliferation. Particulars: pre-treated 60 min with 10 μM PD98059 or 100 nM wortmannin, then 25 ng/ml GDNF for 72 hrs. In kind it is cell-based, human. On the procedure: (§1) Cell proliferation 48 and 72 hrs after GDNF treatment (5, 25 or 50 ng/ml, dissolved in water) in serum-free medium was analyzed by 3-(4,5-dimethylthiazol-2-yl)-2,5-diphenyltetrazolium bromide (MTT) and direct cell counting with a light microscope, respectively. MTT (0.4 mg/ml, Sigma-Aldrich, St. Louis, Mo.) was added into culture wells after washing with PBS. The converted dye was dissolved with DMSO 2 hrs after incubation at 37° C. and the absorbance was measured at a wavelength of 550 nm with a microplate reader (Bio-Rad). For cell counting, cells were harvested after washing with PBS and the number of cells was counted using a hemocytometer under a microscope. In blocking assays, cells were pre-treated with 10 μM of a MEK1 inhibitor, PD98059 (Cell Signaling Technology), or 100 nM of a PI3K inhibitor, wortmannin (Cell Signaling Technology), for 60 min before treatment of GDNF as indicated in the instructions from the company, and followed by 25 ng/ml of GDNF treatment for 72 hrs. To avoid the effect of the delivery agent on cells, PD98059 and wortmannin were dissolved in PBS, and the same amount of PBS was added to control (GDNF(−)) and GDNF-treated cells.

A further test concerns the target RET (Homo sapiens, UniProt P07949). Particulars: cited from earlier work.
The test system of the next test is RETmt thyroid cancers. As to conditions: cited from earlier work.
The subject of test [2] is melanoma cells (RETmt and RETwt). The experiment in a line: Migration assay (Transwell chamber) with GDNF. Particulars: RETmt cells compared with RETwt cells; 5 or 25 ng/ml GDNF, 48 hrs. In kind it is cell-based, human. On the procedure:
Migration ability of the melanoma cells was determined with a modified technique using a Transwell® chamber with a microporous membrane (membrane diameter 6.5 mm, pore size 8 μm, CORNING, Corning, N.Y.) (29). Melanoma cells were seeded in the upper chamber with RPMI 1640 culture medium (Invitrogen) with 2% fetal bovine serum (FBS). The lower chamber contained RPMI 1640 culture medium with 2% FBS and 5 or 25 ng/ml of GDNF. The cells that migrated through the membrane and adhered to the bottom of lower chamber were fixed with 80% ethanol and stained with hematoxylin 48 hrs after incubation at 37° C. The number of stained cells was counted in a total of 5 fields under a microscope with 200× magnification. In blocking assays, cells were pre-treated with wortmannin (100 nM) for 60 min before treatment of GDNF as indicated in the instructions from the company and followed by treatment with 25 ng/ml GDNF for 48 hrs. To avoid the effect of the delivery agent on cells, wortmannin was dissolved in PBS, and the same amount of PBS was added to control (GDNF(−)) and GDNF-treated cells.

Another test concerns Akt. The experiment in a line: Western blotting of phosphorylated Akt after GDNF. Particulars: 25 ng/ml GDNF. In kind it is cell-based, human. On the procedure:
(§2) Cells were washed twice with ice-cold phosphate-buffered saline (PBS) and dissolved in solubilizing buffer (pH 7.5, 20 mM Tris-HCL, 12.5 mM β-glycerophosphate, 2 mM EGTA, 10 mM NaF, 1 mM benzamide, 1% NP-40, 1 mM Na3VO4, 1× protease inhibitor mix) after treatment with 25 μg human recombinant GDNF (Chemicon International, Temecula, Calif.). Each aliquot of protein (10 μg) was subjected to Western blotting analysis. After electrophoresis on 12.5% polyacrylamide gels, the protein was transblotted to Hybond™-P (Amersham Life Sciences, Inc., Arlington Heights, Ill.) in transfer buffer (192 mM glycine, 25 mM Tris, 2.5 mM SDS, and 10% methanol). The blots were blocked with 5% non-fat dry milk, and then incubated with anti-ERK 1/2 rabbit polyclonal Ab, or anti-phosphorylated ERK 1/2 rabbit polyclonal Ab (1:1000, Phosphoplus® p44/42 MAP Kinase (Thr202/Tyr204) Antibody kit, Cell Signaling Technology, Danvers, Mass.), and then incubated with an horse radish peroxidase (HRP)-conjugated anti-rabbit IgG Ab (1:2000, Cell Signaling Technology). As for Western blotting of Akt, anti-Akt rabbit polyclonal Ab, or anti-phosphorylated Akt rabbit polyclonal Ab (1:500, Phosphoplus® Akt (Ser473) Antibody Kit, Cell Signaling Technology) and a secondary Ab, HRP-conjugated anti-rabbit IgG Ab (1:1000), were used. Subsequently, the blots were developed with ECL Plus Western blotting Detection system (GE Healthcare Life Sciences, Piscataway, N.J.) according to the manufacturer instructions.
(In western blotting, separated proteins are transferred to a membrane and probed.)

Test [3] has as its system melanoma cells (RETmt and RETwt). Nature of the test: QCM Collagen-based Invasion Assay with GDNF. In kind it is cell-based, human. Particulars: RETmt cells compared with RETwt cells; 25 ng/ml GDNF, 60 hrs. On the procedure:
Invasion ability of the melanoma cells was analyzed using QCM™ Collagen-based Invasion Assay MILLIPORE, Billerica, Mass.), as described in previous reports (27, 29). Cells were seeded in the upper chamber with RPMI 1640 culture medium (Invitrogen) with 2% FBS containing GDNF. The lower chamber contained RPMI 1640 culture medium with 5% FBS and GDNF with same concentration as the upper chamber (25 ng/ml). Cells invading the collagen-coated membrane were fixed and stained 60 hrs after incubation at 37° C. using reagents provided by MILLIPORE, according to the manufacturer's instructions. Stained cells were dissolved with a provided reagent and measured at a 550 nm wavelength with a microplate reader (Bio-Rad). In the blocking assay, cells were pre-treated with 1 μg/ml of a goat anti-human polyclonal RET-specific Ab, which binds to the extracellular domain of RET (R&D Systems), or 1 μg/ml control goat IgG (Santa Cruz Biotechnology) as a control 60 min before treatment with GDNF and followed by treatment with 25 ng/ml GDNF for 60 hrs.

Test [4] concerns melanoma cells (ME1, ME7, ME3). The experiment in a line: Actin polymers staining by Alexa Fluor 568 phalloidin. In kind it is cell-based, human. As to conditions: 10 ng/ml GDNF, 48 hrs. The method, then:
Melanoma cells were seeded in BD BioCoat™ CultureSlides (BD Biosciences, San Jose, Calif.). Cells were washed twice with PBS and fixed with 3.7% formaldehyde solution in PBS for 10 min at room temperature after a 48 hr incubation with GDNF (10 ng/ml) at 37° C. Fixed cells were stained with 1 U/200 μl of PBS Alexa Fluor® 568 phalloidin (Invitrogen) for 20 min at room temperature. After washing twice with PBS, actin polymers were observed using fluorescence microscopy with 400× magnification.

In another test the test system is ERK1/2. The experiment in a line: Western blotting of phosphorylated ERK1/2 after GDNF. As to conditions: 25 ng/ml GDNF. In kind it is cell-based, human. The method, then:
as §2

Test [5] concerns melanoma cells (RETmt and RETwt). The experiment in a line: Cell proliferation by GDNF (MTT assay). As to conditions: 48-hr exposure to GDNF, serum-free medium. In kind it is cell-based, human. The method, then: as §1

“Also recorded” adds a separate entry of the source.

Sequence of RET (P07949 29-1114): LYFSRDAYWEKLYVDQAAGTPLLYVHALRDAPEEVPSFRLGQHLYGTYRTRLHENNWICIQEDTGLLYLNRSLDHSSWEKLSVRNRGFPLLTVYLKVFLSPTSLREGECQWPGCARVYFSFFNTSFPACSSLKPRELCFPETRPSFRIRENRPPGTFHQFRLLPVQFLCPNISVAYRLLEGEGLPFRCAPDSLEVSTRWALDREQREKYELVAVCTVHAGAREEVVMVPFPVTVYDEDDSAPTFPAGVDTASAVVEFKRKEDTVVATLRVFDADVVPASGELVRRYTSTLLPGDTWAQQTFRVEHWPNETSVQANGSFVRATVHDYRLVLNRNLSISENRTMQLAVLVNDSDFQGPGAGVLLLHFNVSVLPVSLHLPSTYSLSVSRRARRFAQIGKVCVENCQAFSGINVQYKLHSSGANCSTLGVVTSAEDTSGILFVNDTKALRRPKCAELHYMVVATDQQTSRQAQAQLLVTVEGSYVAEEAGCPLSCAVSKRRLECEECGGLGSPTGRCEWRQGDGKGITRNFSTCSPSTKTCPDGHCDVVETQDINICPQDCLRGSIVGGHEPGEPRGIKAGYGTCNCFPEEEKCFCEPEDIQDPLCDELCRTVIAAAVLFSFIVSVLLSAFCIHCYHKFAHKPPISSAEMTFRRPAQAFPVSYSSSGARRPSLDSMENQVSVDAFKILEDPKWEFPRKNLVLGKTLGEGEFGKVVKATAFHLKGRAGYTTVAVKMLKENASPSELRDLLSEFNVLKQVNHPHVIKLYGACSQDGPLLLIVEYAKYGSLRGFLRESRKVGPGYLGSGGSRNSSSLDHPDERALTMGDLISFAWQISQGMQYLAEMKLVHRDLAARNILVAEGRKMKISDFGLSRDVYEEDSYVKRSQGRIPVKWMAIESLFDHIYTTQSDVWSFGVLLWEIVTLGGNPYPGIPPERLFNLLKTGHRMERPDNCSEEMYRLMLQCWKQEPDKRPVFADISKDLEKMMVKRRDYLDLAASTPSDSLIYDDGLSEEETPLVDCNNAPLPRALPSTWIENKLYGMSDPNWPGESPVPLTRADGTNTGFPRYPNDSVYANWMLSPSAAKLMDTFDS
Sequence of RET G691S mutant (RETmt), endogenous on melanoma cells (human) (P07949 29-1114 G691S): as the sequence (P07949 29-1114) above, with G663S counted along it

Take “human recombinant GDNF (glial cell line-derived neurotrophic factor) (from UniProt P39905 78-211) (ligand)”: the suppression by RET siRNA of GDNF-induced cell proliferation in ME1 (MTT assay) in [1] is above 80%.

With `COc1cccc(-c2cc(=O)c3ccccc3o2)c1N` [PD98059], the “suppression of GDNF-induced proliferation” value in the test with ME7 cells (RETmt/BRAFwt) is reported as “significantly blocked; also recorded: completely suppressed”.

Turning to `CNC(=O)c1cc(Oc2ccc(NC(=O)Nc3ccc(Cl)c(C(F)(F)F)c3)cc2)ccn1` [Sorafenib], at RET, the RET signaling entry is listed as “can block”, the “kinase activity of RET” value was “directly suppresses” and the “lysosomal degradation of RET protein” value is listed as “promotes”. Also, the “growth of RETmt thyroid cancers” value in the test on RETmt thyroid cancers is recorded as “suppress growth”.

B1: GDNF: human recombinant GDNF (Chemicon International), major ligand of RET (protein)
chain: SPDKQMAVLPRRERNRQAAAANPENSRGKGRRGQRGKNRGCVLTAIHLNVTDLGLGYETKEELIFRYCSGSCDAAETTYDKILKNLSRNRRLVSDKVGQACCRPIAFDDDLSFLDDNLVYHILRKHSAKRCGCI
Regarding B1, the “migration after GDNF stimulation” value in [2] is listed as “more vigorous”. Also, the “phosphorylation of Akt” value in the test on Akt (ME1 (RETmt/BRAFmt), ME5 (RETmt/BRAFwt)) was “strongly phosphorylated”; with Akt (ME3 (RETwt/BRAFwt)) it was “weak phosphorylation”. In the test with Akt (ME1, ME5), the “duration of phosphorylation of Akt” value is recorded as 60 min. In addition, the “time to strong phosphorylation of Akt after treatment” value in the test on Akt (ME1, ME5) is reported as at most 15 min. Besides, the “invasion after GDNF stimulation” value in test [3] is “more vigorous”. In addition, the “actin polymerization (filopodia)” value in [4] (RETmt cell lines ME1, ME7) is listed as “induced intensely; also recorded: induced filopodia”; in test [4] (RETwt cell line ME3), “no actin polymerization induced”. Moreover, the “phosphorylation of ERK1/2” value is “more intense phosphorylation; also recorded: strongly phosphorylated” in the test on ERK1/2 (ME1 (RETmt/BRAFmt), ME7 (RETmt/BRAFwt)) and “weak phosphorylation” in the test on ERK1/2 (ME3 (RETwt/BRAFwt)). Besides, the “duration of phosphorylation of ERK1/2” value with ERK1/2 (ME1, ME7) was 60 min. Also, the “time to strong phosphorylation of ERK1/2 after treatment” value with ERK1/2 (ME1, ME7) is reported as at most 15 min. Moreover, the “cell proliferation on GDNF exposure” value in test [5] (RETmt melanoma cells) is recorded as “enhanced proliferation”; in test [5] (RETwt melanoma cells), “but not RETwt melanoma cells”.
